Reference: FireProtDB (doi:10.1371/journal.ppat.1004158)

Conditions: Podospora anserina; pH 7.5; 25 °C; GdnHCl; optical density; whole UniProt chain shown

B1: Heterokaryon incompatibility protein s wild type, Q03689 (protein)
chain: MSEPFGIVAGALNVAGLFNNCVDCFEYVQLGRPFGRDYERCQLRLDIAKARLSRWGEAVKINDDPRFHSDAPTDKSVQLAKSIVEEILLLFESAQKTSKRYELVADQQDLVVFEDKDMKPIGRALHRRLNDLVSRRQKQTSLAKKTAWALYDGKSLEKIVDQVARFVDELEKAFPIEAVCHKLAEIEIEEVEDEASLTILKDAAGGIDAAMSDAAAQKIDAIVGRNSAKDIRTEERARVQLGNVVTAAALHGGIRISDQTTNSVETVVGKGESRVLIGNEYGGKGFWDN
Question: With B1 as the protein, how does the unfolding free energy read?
Answer: 2.9 kcal/mol
